Laboratory results from patent US20030119733A1, “Compositions and methods for inhibiting hepatocyte invasion by malarial sporozoites” (New York University, priority 1992, published 2003).

B1: Falciparum-2: fragment of P. falciparum CS protein with repeats and Region II+ (residues 43-391) (protein)
chain: AGTNLYNELEMNYYGKQENWYSLKKNSRSLGENDDGNNNNGDNGREGKDEDKRDGNNEDNEKLRKPKHKKLKQPGDGNPDPNANPNVDPNANPNVDPNANPNVDPNANPNANPNANPNANPNANPNANPNANPNANPNANPNANPNANPNANPNANPNANPNANPNVDPNANPNANPNANPNANPNANPNANPNANPNANPNANPNANPNANPNANPNANPNANPNANPNANPNANPNANPNANPNKNNQGNGQGHNMPNDPNRNVDENANANNAVKNNNNEEPSDKHIEQYLKKIKNSISTEWSPCSVTCGNGIQVRIKPGSANKPKDELDYENDIEKKICKMEKCSS
B2: Falciparum-1: Same as Falciparum-2 minus most of Region II+ (P. falciparum residues 43-348) (protein)
chain: AGTNLYNELEMNYYGKQENWYSLKKNSRSLGENDDGNNNNGDNGREGKDEDKRDGNNEDNEKLRKPKHKKLKQPGDGNPDPNANPNVDPNANPNVDPNANPNVDPNANPNANPNANPNANPNANPNANPNANPNANPNANPNANPNANPNANPNANPNANPNANPNVDPNANPNANPNANPNANPNANPNANPNANPNANPNANPNANPNANPNANPNANPNANPNANPNANPNANPNANPNANPNKNNQGNGQGHNMPNDPNRNVDENANANNAVKNNNNEEPSDKHIEQYLKKIKNSISTEWSP

How the values were obtained:
[1] = Solid phase binding assay, analogues of sulfatide and cholesterol-3-sulfate; settings: dried into microtiter wells
Method: Solid phase binding assays: Thirty μl of lipids or steroids dissolved in methanol (20-250 μg/ml) were dried into wells of microassay plates (Cat.# 3911—Falcon—Oxnard, Calif.). The plates were then blocked with 1% BSA/PBS pH 7.4 (BSA/PBS) for 30 minutes. Wells were incubated with recombinant protein (or with parasite extract) in PBS/BSA for 1 hour, washed 3 times with BSA/PBS, incubated for 1 hour with monoclonal antibodies 2F2 or 2A10 in BSA/PBS, washed 3 times, and then incubated with (10^5 cpm/well) ^125I protein A (Amersham Corp., Arlington Hts., Ill.). In the case of the P. berghei CS protein, wells were incubated with ^125I labelled mAb 3D11. Wells were washed again and the bound radioactive protein was counted in an LKB gamma-counter (model #1260, Pharmacia, Inc., Gaithersburg, Md.). For inhibition assays, the recombinant proteins were mixed with dilutions of the various polymers in BSA/PBS, the mixture was loaded into the wells of the microtiter plates, and the binding assay performed as above. See also, Roberts, et al. J. Biol. Chem. 260:9405-9411, 1985.
1.4 nmol of sulfatide (open squares), cholesterol-3-sulfate (closed triangles), galactocerebroside I (closed circles), galactocerebroside II (open circles) and cholesterol (open triangles) were evaporated into microtiter wells and then incubated with serial dilutions of Vivax-2. […]

liver membranes = experiment: Binding activity of aggregated and monomeric FPLC fractions; settings: aggregated form
Method: To separate monomers from multimers of recombinant CS, the preparations were subjected to molecular sieving chromatography on an FPLC apparatus (Pharmacia, Piscataway, N.J.). One hundred micrograms of CS27IVC in a phosphate buffer containing 150 mM NaCl (pH 7.2) was injected into a Superose 12 sizing column (Pharmacia). The protein was eluted in the same buffer using a flow rate of 0.2 ml/min. A high molecular weight fraction ([…]) co-eluted with thyroglobulin. The monomeric form of the protein eluted between amylase (molecular weight=200 kDa) and BSA (molecular weight=66kDa).
The methods described by Lambert, J. M. et al., Biochemistry 17:5406-5416, 1978 were followed. Falciparum-1 at a concentration of 1 mg/ml was incubated with 250 mM Traut's reagent (Pierce Chemical Co., Rockford, Ill.) in 50 mM triethylamine-hydrochloric acid (TEA-HCl) (pH 8.0), 1 mM Mg(Ac)2, and 50 mM KCl for 20 min. on ice. Traut's reagent (0.5 M stock) was prepared immediately before use in a solution containing equal volumes of 1 M TEA-HCl and 1 M TEA-free base. The sulfhydryl-containing falciparum-1 was oxidized in ambient air at 4° C. overnight. The presence of aggregated disulfide-linked falciparum-1 was confirmed both by chromatography in an FPLC sizing column and by Western blotting as described above.
The gold conjugates employed in the foregoing liver section experiments contained no aggregates. […]

[2] = Localization in organs after intravenous injection (light and electron microscopy); type: in vivo, mouse; settings: 100 μg i.v., 5 minutes
Method: In other experiments, light and electron microscopy were used to localize CS in the various organs. The mice were injected i.v. with 100 μg of unlabeled CS27IVC or Falc-1 via the retroorbital plexus. The mice were exsanguinated five minutes after injection, the organs removed, rinsed in TBS, blotted dry, and then snap frozen in liquid nitrogen for light microscopy. For electron microscopy, the organs were cut into small pieces and fixed in a mixture of 0.1% glutaraldehyde and 4% paraformaldehyde.
Light Microscopy: The frozen tissue was embedded in Tissue Tek O.C.T. (Miles Inc., Naperville, Ill.) and cut into 5 μm sections. Sections were dried for 30 minutes, fixed for 10 minutes in 4% paraformaldehyde, and either used immediately or stored at 4° C. in PBS containing 1% BSA, 0.5% Tween-20. After blocking with the same buffer, the sections were incubated with mAb 2A10 conjugated to FITC, and examined in a fluorescence microscope.
Electron Microscopy: The fixed liver specimens were dehydrated in ethanol and embedded in Lowicryl K4M at −20° C. (Frevert et al., Infect. and Immun. 80:2349 (1992)). After UV polymerization, sections were cut with a RMC MT-7 ultramicrotome and stained by sequential incubation with 15 μg/ml mAb 2A10 and protein A gold 10 nm (PAG10) (1:30, Amersham, Arlington, Ill.). Cerami et al., Cell 70:1021 (1992). Control sections were strained only with the gold conjugate. […]

Row | Molecule | binding to analogues (gangliosides, galactocerebrosides I and II, cholesterol, other steroids) [1] | binding activity (liver membranes) | staining of kidney or other organs with FITC-labeled mAb 2A10 [2] | staining of liver with FITC-labeled mAb 2A10 [2]
1 | B1 | not | – | – | –
2 | B2 | – | inactive | No staining | No staining
